Data published in IntAct's records for PubMed 22101932.

B1: Telomere elongation protein est1 (Schizosaccharomyces pombe (strain ATCC 38366 / 972)), O74804 (parent)
chain: MSQQLSSNEICEEQGKLVKALCEAAQGGFKHDLYEKIIAIEIEVEKKLLNRLKSIQTNTFERPDIIWSCCHYKIIQHFRSRFREIHPRHVVEKKKTKKVFFKFLKTCAIFYQTCISELISKFQLDSYRPFFCKWTSSATVSSTISNDEMSSIPEASYSRNHMEALECVYNCFIYLGDMARYSSTCLKKRGAYDRALGFYDLAHRTLPGNGMHRNQIAVVWASDECIVESIYWFSSALCSEDPPKSALLNLLKQLIAFYRRCFAVHFEFVSPMMILLFIISDCCIHSLKEIQPFKCPSIMVKDLENSLLQSNIRNVGYEKKNLYYISSAFSNLLHCRYFNCNDRLRSFYYRFSSWLFHQTLACAKEVESERAPTSYLTSCLPSIKVILARVLESSPAFGFIERNELEQLSYHFRICEKFFKESSENKMLNLFEDYNEFGLCKSFICLFKRLNEDIIGPKLNINPPDYTTHPFSESIKRFYQISKILNLLLS
partner: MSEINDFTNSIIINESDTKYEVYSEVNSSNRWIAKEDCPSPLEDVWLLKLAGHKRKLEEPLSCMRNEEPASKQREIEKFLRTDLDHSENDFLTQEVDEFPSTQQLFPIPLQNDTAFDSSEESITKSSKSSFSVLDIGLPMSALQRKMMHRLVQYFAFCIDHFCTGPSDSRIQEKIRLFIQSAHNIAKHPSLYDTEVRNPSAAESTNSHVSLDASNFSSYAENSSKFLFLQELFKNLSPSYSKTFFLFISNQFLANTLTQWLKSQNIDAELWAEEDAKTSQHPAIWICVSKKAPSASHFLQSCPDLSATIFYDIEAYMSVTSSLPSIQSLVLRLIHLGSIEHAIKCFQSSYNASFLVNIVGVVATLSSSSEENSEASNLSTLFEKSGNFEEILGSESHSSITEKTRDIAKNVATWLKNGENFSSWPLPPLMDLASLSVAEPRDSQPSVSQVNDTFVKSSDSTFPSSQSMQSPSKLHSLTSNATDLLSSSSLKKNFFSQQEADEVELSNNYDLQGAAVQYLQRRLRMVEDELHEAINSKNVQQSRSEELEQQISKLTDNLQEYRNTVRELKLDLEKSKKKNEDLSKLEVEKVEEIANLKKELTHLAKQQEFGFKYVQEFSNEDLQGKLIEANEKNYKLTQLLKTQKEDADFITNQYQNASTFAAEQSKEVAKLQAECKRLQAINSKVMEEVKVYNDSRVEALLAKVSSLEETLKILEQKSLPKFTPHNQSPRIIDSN
B2: Coiled-coil quantitatively-enriched protein 1 (Schizosaccharomyces pombe (strain ATCC 38366 / 972)), Q10432 (parent)
chain: B1 partner
partner: B1 chain

Variants of: B1
Conditions: with ccq1_schpo ccq1, Q10432

effect of a mutation on the interaction | Variant
disrupting interaction | MSQQLSSNEICEEQGKLVKALCEAAQGGFKHDLYEKIIAIEIEVEKKLLNRLKSIQTNTFERPDIIWSCCHYKIIQHFRSRFREIHPRHVVEKKKTKKVFFKFLKTCAIFYQTCISELISKFQLDSYRPFFCKWTSSATVSSTISNDEMSSIPEASYSRNHMEALECVYNCFIYLGDMAAYSSTCLKKRGAYDRALGFYDLAHRTLPGNGMHRNQIAVVWASDECIVESIYWFSSALCSEDPPKSALLNLLKQLIAFYRRCFAVHFEFVSPMMILLFIISDCCIHSLKEIQPFKCPSIMVKDLENSLLQSNIRNVGYEKKNLYYISSAFSNLLHCRYFNCNDRLRSFYYRFSSWLFHQTLACAKEVESERAPTSYLTSCLPSIKVILARVLESSPAFGFIERNELEQLSYHFRICEKFFKESSENKMLNLFEDYNEFGLCKSFICLFKRLNEDIIGPKLNINPPDYTTHPFSESIKRFYQISKILNLLLS [R180A]
disrupting interaction | MSQQLSSNEICEEQGKLVKALCEAAQGGFKHDLYEKIIAIEIEVEKKLLNRLKSIQTNTFERPDIIWSCCHYKIIQHFASRFREIHPRHVVEKKKTKKVFFKFLKTCAIFYQTCISELISKFQLDSYRPFFCKWTSSATVSSTISNDEMSSIPEASYSRNHMEALECVYNCFIYLGDMARYSSTCLKKRGAYDRALGFYDLAHRTLPGNGMHRNQIAVVWASDECIVESIYWFSSALCSEDPPKSALLNLLKQLIAFYRRCFAVHFEFVSPMMILLFIISDCCIHSLKEIQPFKCPSIMVKDLENSLLQSNIRNVGYEKKNLYYISSAFSNLLHCRYFNCNDRLRSFYYRFSSWLFHQTLACAKEVESERAPTSYLTSCLPSIKVILARVLESSPAFGFIERNELEQLSYHFRICEKFFKESSENKMLNLFEDYNEFGLCKSFICLFKRLNEDIIGPKLNINPPDYTTHPFSESIKRFYQISKILNLLLS [R79A]
disrupting interaction | MSQQLSSNEICEEQGKLVKALCEAAQGGFKHDLYEKIIAIEIEVEKKLLNRLKSIQTNTFERPDIIWSCCHYKIIQHFASRFREIHPRHVVEKKKTKKVFFKFLKTCAIFYQTCISELISKFQLDSYRPFFCKWTSSATVSSTISNDEMSSIPEASYSRNHMEALECVYNCFIYLGDMAAYSSTCLKKRGAYDRALGFYDLAHRTLPGNGMHRNQIAVVWASDECIVESIYWFSSALCSEDPPKSALLNLLKQLIAFYRRCFAVHFEFVSPMMILLFIISDCCIHSLKEIQPFKCPSIMVKDLENSLLQSNIRNVGYEKKNLYYISSAFSNLLHCRYFNCNDRLRSFYYRFSSWLFHQTLACAKEVESERAPTSYLTSCLPSIKVILARVLESSPAFGFIERNELEQLSYHFRICEKFFKESSENKMLNLFEDYNEFGLCKSFICLFKRLNEDIIGPKLNINPPDYTTHPFSESIKRFYQISKILNLLLS [R79A;R180A]

Variants of: B1
Conditions: with ccq1_schpo ccq1, Q10432
Remark: another data set of the same source

effect of a mutation on the interaction | Variant
decreasing interaction | MSQQLSSNEICEEQGKLVKALCEAAQGGFKHDLYEKIIAIEIEVEKKLLNRLKSIQTNTFERPDIIWSCCHYKIIQHFASRFREIHPRHVVEKKKTKKVFFKFLKTCAIFYQTCISELISKFQLDSYRPFFCKWTSSATVSSTISNDEMSSIPEASYSRNHMEALECVYNCFIYLGDMARYSSTCLKKRGAYDRALGFYDLAHRTLPGNGMHRNQIAVVWASDECIVESIYWFSSALCSEDPPKSALLNLLKQLIAFYRRCFAVHFEFVSPMMILLFIISDCCIHSLKEIQPFKCPSIMVKDLENSLLQSNIRNVGYEKKNLYYISSAFSNLLHCRYFNCNDRLRSFYYRFSSWLFHQTLACAKEVESERAPTSYLTSCLPSIKVILARVLESSPAFGFIERNELEQLSYHFRICEKFFKESSENKMLNLFEDYNEFGLCKSFICLFKRLNEDIIGPKLNINPPDYTTHPFSESIKRFYQISKILNLLLS [R79A]
decreasing interaction | MSQQLSSNEICEEQGKLVKALCEAAQGGFKHDLYEKIIAIEIEVEKKLLNRLKSIQTNTFERPDIIWSCCHYAIIQHFRSRFREIHPRHVVEKKKTKKVFFKFLKTCAIFYQTCISELISKFQLDSYRPFFCKWTSSATVSSTISNDEMSSIPEASYSRNHMEALECVYNCFIYLGDMARYSSTCLKKRGAYDRALGFYDLAHRTLPGNGMHRNQIAVVWASDECIVESIYWFSSALCSEDPPKSALLNLLKQLIAFYRRCFAVHFEFVSPMMILLFIISDCCIHSLKEIQPFKCPSIMVKDLENSLLQSNIRNVGYEKKNLYYISSAFSNLLHCRYFNCNDRLRSFYYRFSSWLFHQTLACAKEVESERAPTSYLTSCLPSIKVILARVLESSPAFGFIERNELEQLSYHFRICEKFFKESSENKMLNLFEDYNEFGLCKSFICLFKRLNEDIIGPKLNINPPDYTTHPFSESIKRFYQISKILNLLLS [K73A]

Variants of: B2
Conditions: with est1_schpo est1, O74804

effect of a mutation on the interaction | Variant
disrupting interaction | T93D
decreasing interaction | Q94A

Variants of: B2
Conditions: with est1_schpo est1, O74804
Remark: another data set of the same source

effect of a mutation on the interaction | Variant
disrupting interaction strength | T93D
disrupting interaction strength | T93A
disrupting interaction strength | T93E
disrupting interaction | Q94A
